Tests used:
Assay in all cases: SEC; purified recombinant AtPDC E1 on a Superose 12 column in 50 mM TES-NaOH, pH 7.4, 50 mM NaCl, 0.1 mM TPP, 0.2 mM MgCl2; fractions analysed by SDS-PAGE and immunoblotting
Settings in all cases: both partners purified
[1] = target: T1, AtPDC E1α G297S mutant, H6-tagged (Arabidopsis thaliana, UniProt P52901 18-389, G297S)
T1 sequence (looked up): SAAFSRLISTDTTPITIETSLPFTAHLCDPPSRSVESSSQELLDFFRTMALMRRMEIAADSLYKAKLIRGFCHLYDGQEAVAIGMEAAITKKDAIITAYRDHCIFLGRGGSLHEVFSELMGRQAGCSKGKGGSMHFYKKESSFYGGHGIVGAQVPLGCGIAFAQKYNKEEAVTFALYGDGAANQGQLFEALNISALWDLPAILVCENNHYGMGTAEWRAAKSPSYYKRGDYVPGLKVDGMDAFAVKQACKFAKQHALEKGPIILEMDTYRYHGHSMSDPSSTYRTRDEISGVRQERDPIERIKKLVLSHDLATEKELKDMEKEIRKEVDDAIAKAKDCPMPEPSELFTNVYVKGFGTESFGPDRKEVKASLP

[2] = target: T2, AtPDC E1α S292A mutant, H6-tagged (Arabidopsis thaliana, UniProt P52901 18-389, S292A)
T2 sequence (looked up): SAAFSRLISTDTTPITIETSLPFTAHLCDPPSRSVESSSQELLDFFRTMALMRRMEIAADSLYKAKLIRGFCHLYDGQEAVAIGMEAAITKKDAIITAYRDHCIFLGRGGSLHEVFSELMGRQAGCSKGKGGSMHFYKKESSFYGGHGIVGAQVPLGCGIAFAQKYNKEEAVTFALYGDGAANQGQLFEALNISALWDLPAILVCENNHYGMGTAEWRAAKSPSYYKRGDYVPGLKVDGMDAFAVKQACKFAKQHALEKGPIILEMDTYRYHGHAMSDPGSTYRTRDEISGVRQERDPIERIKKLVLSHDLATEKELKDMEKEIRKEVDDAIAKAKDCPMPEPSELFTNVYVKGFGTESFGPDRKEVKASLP

[3] = target: T3, AtPDC E1α S298A mutant, H6-tagged (Arabidopsis thaliana, UniProt P52901 18-389, S298A)
T3 sequence (looked up): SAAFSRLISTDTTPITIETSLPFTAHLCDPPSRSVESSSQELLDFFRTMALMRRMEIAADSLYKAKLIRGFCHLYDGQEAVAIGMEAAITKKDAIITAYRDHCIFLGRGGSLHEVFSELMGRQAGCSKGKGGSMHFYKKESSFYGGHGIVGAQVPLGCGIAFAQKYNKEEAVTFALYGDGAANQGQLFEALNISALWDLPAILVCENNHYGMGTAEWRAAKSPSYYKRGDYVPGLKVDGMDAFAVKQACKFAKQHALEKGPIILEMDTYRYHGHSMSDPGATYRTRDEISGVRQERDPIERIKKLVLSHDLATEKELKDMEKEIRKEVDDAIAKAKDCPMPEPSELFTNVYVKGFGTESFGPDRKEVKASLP

[4] = target: T4, AtPDC E1α S292D/S298A double mutant, H6-tagged (Arabidopsis thaliana, UniProt P52901 18-389, S292D | S298A)
T4 sequence (looked up): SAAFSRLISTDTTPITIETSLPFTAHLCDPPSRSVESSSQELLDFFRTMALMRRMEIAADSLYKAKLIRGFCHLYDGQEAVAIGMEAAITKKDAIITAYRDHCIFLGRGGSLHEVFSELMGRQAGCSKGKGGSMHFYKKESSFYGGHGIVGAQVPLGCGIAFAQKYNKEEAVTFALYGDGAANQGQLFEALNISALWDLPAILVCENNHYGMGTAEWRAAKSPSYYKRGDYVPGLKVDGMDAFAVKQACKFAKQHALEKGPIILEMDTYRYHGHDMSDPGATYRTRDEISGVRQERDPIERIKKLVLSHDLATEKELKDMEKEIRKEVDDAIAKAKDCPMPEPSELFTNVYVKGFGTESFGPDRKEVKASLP

[5] = target: T5, AtPDC E1α D295N mutant, H6-tagged (Arabidopsis thaliana, UniProt P52901 18-389, D295N)
T5 sequence (looked up): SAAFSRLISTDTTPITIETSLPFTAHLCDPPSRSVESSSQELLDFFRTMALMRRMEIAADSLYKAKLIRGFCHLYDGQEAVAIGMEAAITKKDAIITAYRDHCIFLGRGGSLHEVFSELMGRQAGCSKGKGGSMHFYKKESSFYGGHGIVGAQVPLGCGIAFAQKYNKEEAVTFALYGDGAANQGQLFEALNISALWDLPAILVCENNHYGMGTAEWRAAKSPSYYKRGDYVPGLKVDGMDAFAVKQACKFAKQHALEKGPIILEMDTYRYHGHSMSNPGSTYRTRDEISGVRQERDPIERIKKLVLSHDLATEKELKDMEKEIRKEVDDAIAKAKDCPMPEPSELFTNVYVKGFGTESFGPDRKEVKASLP

Measured: binding result

B1: Arabidopsis thaliana mitochondrial pyruvate dehydrogenase E1β subunit (AtPDC E1β), FLAG-tagged (enzyme, UniProt Q38799 30-363, looked up)
chain: AAGAKEMTVRDALNSAIDEEMSADPKVFVMGEEVGQYQGAYKITKGLLEKYGPERVYDTPITEAGFTGIGVGAAYAGLKPVVEFMTFNFSMQAIDHIINSAAKSNYMSAGQINVPIVFRGPNGAAAGVGAQHSQCYAAWYASVPGLKVLAPYSAEDARGLLKAAIRDPDPVVFLENELLYGESFPISEEALDSSFCLPIGKAKIEREGKDVTIVTFSKMVGFALKAAEKLAEEGISAEVINLRSIRPLDRATINASVRKTSRLVTVEEGFPQHGVCAEICASVVEESFSYLDAPVERIAGADVPMPYAANLERLALPQIEDIVRASKRACYRSK
binds: all assays above

From PMC3034952 (Enzyme Research, 2011)
